We go through 13 molecules from patent publication US20020119473, “Nucleic acid ligands to the prostate specific membrane antigen” (published 2002).

Broadly, the IC50 is the concentration at which inhibition is half-maximal. The term Ki denotes the dissociation constant of the complex between target and ligand, obtained from inhibition or displacement.

Holding throughout (details): tags: S-tag fusion released by enterokinase; baculovirus Sf-9 secreted
The target in data set [1] is T1, xPSM (extracellular portion of PSMA) (Homo sapiens (LNCaP cDNA), UniProt Q04609 Q04609:44-750). In words: inhibition; NAALADase assay, 8 nM substrate, 37 C. The protocol:
(§1) NAAG hydrolysis was performed essentially as described in Robinson et al. (1987) J Biol Chem. 262:14498-506. LNCaP cell extracts were prepared by sonication in the presence of 50 mM Tris, pH 7.4, 0.5% Triton-X-100. Cell lysate or purified xPSM was incubated in the presence of the radiolabeled substrate N-acetyl-L-aspartyl-L-[3,4-³H]glutamate (NEN Life Science Products, Boston, Mass.) at 37° C. for 10-15 minutes. The reaction was stopped with an equal volume of ice-cold 100 mM sodium phosphate, 2 mM EDTA. Products were separated from intact substrate using anion exchange chromatography and quantitated by scintillation counting. […] In all cases less than 20% of substrate was cleaved.

In data set [2] the target is T1, xPSM (extracellular portion of PSMA). Kind of data set: inhibition; competitive NAALADase inhibition, +/-7.8 nM, 37 C. The protocol:
as §1

For data set [3] the target is unchanged. In words: inhibition; noncompetitive NAALADase inhibition, 37 C. The protocol:
as §1

For data set [4] the target is unchanged. In words: inhibition; competitive NAALADase inhibition, 37 C. The protocol: as §1

T1 sequence (Q04609 44-750, one chain of several): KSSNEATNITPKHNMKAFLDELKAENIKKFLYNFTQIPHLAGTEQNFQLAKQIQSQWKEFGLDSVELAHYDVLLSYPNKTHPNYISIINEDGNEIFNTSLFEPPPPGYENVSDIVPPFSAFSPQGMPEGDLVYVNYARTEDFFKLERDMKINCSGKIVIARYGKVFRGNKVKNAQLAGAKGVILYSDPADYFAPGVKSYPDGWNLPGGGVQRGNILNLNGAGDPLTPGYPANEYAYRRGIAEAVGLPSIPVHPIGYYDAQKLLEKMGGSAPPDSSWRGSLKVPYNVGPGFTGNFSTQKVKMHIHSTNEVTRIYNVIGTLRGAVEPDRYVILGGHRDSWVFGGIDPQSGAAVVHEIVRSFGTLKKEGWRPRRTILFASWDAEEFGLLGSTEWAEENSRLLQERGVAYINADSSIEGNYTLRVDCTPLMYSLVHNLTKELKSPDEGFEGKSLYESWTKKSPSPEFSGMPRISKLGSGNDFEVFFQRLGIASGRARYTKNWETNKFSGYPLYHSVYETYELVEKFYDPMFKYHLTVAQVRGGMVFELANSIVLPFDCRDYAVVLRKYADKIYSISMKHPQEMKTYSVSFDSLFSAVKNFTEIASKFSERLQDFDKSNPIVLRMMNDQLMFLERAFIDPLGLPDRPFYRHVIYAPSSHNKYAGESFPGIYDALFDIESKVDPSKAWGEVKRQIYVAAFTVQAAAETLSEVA

B1: xPSM1.A10-1 (ssRNA)
RNA: GGGAGGACGAUGCGGAUCAGCCAUGUUUACGUCACUCCUUGUCAAUCCUCAUCGGCAGACGACUCG
modifications: 2'-F all pyrimidines; purines 2'-OH
Take B1: the IC50 in data set [1] was found to be 40 nM.

B2: xPSM1.A9-3 (ssRNA)
RNA: GGGAGGACGAUGCGGACCGAAAAAGACCUGACUUCUAUACUAAGUCUACGUUCCC
modifications: 2'-F all pyrimidines; purines 2'-OH
As for B2, the IC50 in data set [1] was greater than 300 nM.
On to GGGAGGACGAUGCGGAUCAGCCAUGUUUACGUCACUCCUUG (ssRNA, 2'-F all pyrimidines; purines 2'-OH) [xPSM1.A10-6], for which the IC50 in data set [1] was greater than 700 nM.
Turning to GGGAGGACGAUGCGGACCGAAAAAGACCUGACUUCUAUAC (ssRNA, 2'-F all pyrimidines; purines 2'-OH) [xPSM1.A9-6], in data set [1], the IC50 is greater than 300 nM.

B3: xPSM1.A10-3 (ssRNA)
RNA: GGGAGGACGAUGCGGAUCAGCCAUGUUUACGUCACUCCUUGUCAAUCCUCAUCGGC
modifications: 2'-F all pyrimidines; purines 2'-OH
For B3, in data set [2], the Ki came to 20.5 nM. Besides, the IC50 in data set [1] was determined as 50 nM.

B4: xPSM1.A10-4 (ssRNA)
RNA: GGGAGGACGAUGCGGAUCAGCCAUGUUUACGUCACUCCUUGUCAAUCCUCA
modifications: 2'-F all pyrimidines; purines 2'-OH
For the molecule B4, the IC50 in data set [1] was greater than 700 nM.

B5: xPSM1.A9-1 (ssRNA)
RNA: GGGAGGACGAUGCGGACCGAAAAAGACCUGACUUCUAUACUAAGUCUACGUUCCCAGACGACUCG
modifications: 2'-F all pyrimidines; purines 2'-OH
Consider B5, for which, in data set [1], the IC50 came to 8 nM.

B6: xPSM-A9 (ssRNA)
RNA: GGGAGGACGAUGCGGACCGAAAAAGACCUGACUUCUAUACUAAGUCUACGUUCCCAGACGACUCGCCCGA
modifications: 2'-F all pyrimidines; purines 2'-OH
For B6, in data set [3], the Ki was 1.1 nM. The IC50 in data set [1] was found to be 5 nM.

B7: xPSM-A10 (62-A10) (ssRNA)
RNA: GGGAGGACGAUGCGGAUCAGCCAUGUUUACGUCACUCCUUGUCAAUCCUCAUCGGCAGACGACUCGCCCGA
modifications: 2'-F all pyrimidines; purines 2'-OH
For B7, the IC50 in data set [1] is 80 nM. The Ki in data set [4] stood at 11.9 nM.
On to GGGAGGACGAUGCGGAUCAGCCAUGUUUACGUCACUCCUUGUCAAU (ssRNA, 2'-F all pyrimidines; purines 2'-OH) [xPSM1.A10-5], for which the IC50 in data set [1] is greater than 700 nM.
Consider GGGAGGACGAUGCGGACCGAAAAAGACCUGACUUCUAUACUAAGU (ssRNA, 2'-F all pyrimidines; purines 2'-OH) [xPSM1.A9-5], for which the concentration for half-maximal inhibition (IC50) in data set [1] was greater than 300 nM.
With GGGAGGACGAUGCGGACCGAAAAAGACCUGACUUCUAUACUAAGUCUACG (ssRNA, 2'-F all pyrimidines; purines 2'-OH) [xPSM1.A9-4], in data set [1], the IC50 is greater than 300 nM.

B8: xPSM1.A9-2 (ssRNA)
RNA: GGGAGGACGAUGCGGACCGAAAAAGACCUGACUUCUAUACUAAGUCUACGUUCCCAGACG
modifications: 2'-F all pyrimidines; purines 2'-OH
For B8, the IC50 in data set [1] worked out at 300 nM.
